Assay results taken from PMC3858276 (2013).
Where no end group is shown, it is not given here.

B1: Rasa1b (Rasa1 sequence 174-447) without biotin (for MST) (domain or fragment)
chain: TAPPTNQWYHGKLDRTIAEERLRQAGKSGSYLIRESDRRPGSFVLSFLSQMNVVNHFRIIAMCGDYYIGGRRFSSLSDLIGYYSHVSCLLKGEKLLYPVAPPEPVEDRRRVRAILPYTKVPDTDEISFLKGDMFIVHNELEDGWMWVTNLRTDEQGLIVEDLVEEVGREEDPHEGKIWFHGKISKQEAYNLLMTVGQVCSFLVRPSDNTPGDYSLYFRTNENIQRFKICPTPNNQFMMGGRYYNSIGDIIDHYRKEQIVEGYYLKEPVPMQDQE
B2: SLP-76 SH2 domain without biotin (for MST) (domain or fragment)
chain: WYVSYITRPEAEAALRKINQDGTFLVRDSSKKTTTNPYVLMVLYKDKVYNIQIRYQKESQVYLLGTGLRGKEDFLSVSDIIDYFRKMPLLLIDGKNRGSRYQCTLTHAA
B3: Lck SH2 domain without biotin (for MST) (domain or fragment)
chain: WFFKNLSRKDAERQLLAPGNTHGSFLIRESESTAGSFSLSVRDFDQNQGEVVKHYKIRNLDNGGFYISPRITFPGLHELVRHYTNASDGLCTRLSRPC
B4: phosphorylated SNAP-YEEI fusion (middle T antigen aa 315-331) (peptide)
chain: THQEEEEPQYEEIPIYL
modifications: not fully specified; also: tyrosine phosphorylation in vitro by Fyn, degree not placed
B5: SH2D1A without biotin (for MST) (natural protein)
chain: MDAVAVYHGKISRETGEKLLLATGLDGSYLLRDSESVPGVYCLCVLYHGYIYTYRVSQTETGSWSAETAPGVHKRYFRKIKNLISAFQKPDQGIVIPLQYPVEKKSSARSTQGTTGIREDPDVCLKAP
B6: RasaN (N-terminal SH2 domain of Rasa1) without biotin (for MST) (domain or fragment)
chain: WYHGKLDRTIAEERLRQAGKSGSYLIRESDRRPGSFVLSFLSQMNVVNHFRIIAMCGDYYIGGRRFSSLSDLIGYYSHVSCLLKGEKLLYPV

What was measured:
Experiment in all cases: MST
[1] = target: T1, phosphorylated SNAP-ADAP fusion protein (ADAP amino acids 570-690) (human, UniProt O15117 570-690, phosphotyrosine (in vitro phosphorylation by Fyn kinase, approx. 90% of each phosphorylation site; sites in Table S1); BG-647 dye on the SNAP-tag)
T1 chain: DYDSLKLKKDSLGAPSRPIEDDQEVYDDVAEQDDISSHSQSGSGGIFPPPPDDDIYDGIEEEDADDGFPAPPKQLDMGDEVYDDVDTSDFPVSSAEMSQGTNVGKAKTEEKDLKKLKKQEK

[2] = target: B1
[3] = target: B6
[4] = target: B5
[5] = target: T2, Fyn SH2 domain without biotin (for MST) (UniProt P06241 149-246)
T2 chain: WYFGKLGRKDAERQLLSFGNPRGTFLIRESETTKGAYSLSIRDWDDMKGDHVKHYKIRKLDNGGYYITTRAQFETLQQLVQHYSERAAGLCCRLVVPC

[6] = target: B3

Row | Binder | Kd [1] | also measured
1 | B1 | 152 nM | 
2 | B2 | 457 nM | 
3 | B3 | 1300 nM | 
4 | B4 |  | Kd [2]: 189 nM; Kd [3]: 128 nM; Kd [4]: 2340 nM; Kd [5]: 430 nM; Kd [6]: 595 nM
5 | B5 | 5730 nM | 
6 | B6 | 142 nM | 
